The nature of this data set: yeast display, Sf9 membrane polyspecificity reagent, FACS + sequencing; frameworks hold sequencing errors. Put shortly: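 Polyreactivity labels are assigned by the sorting gate from which each nanobody was recovered. The gates were low and high (top ~1%), set on anti-HA fluorescence for expression and streptavidin fluorescence for reagent binding. Before sorting, galactose-induced (36–48 hours) yeast display cells were stained for 1 hour at 4 °C with 10% biotinylated, detergent-solubilized Sf9 membrane reagent.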
In the case of “QVQLVESGGGLVQAGGSLRLSCAASGFIFIYNAMGWYRHAPGKERELVATINWSGGDSTYYADSVKGRFTISRDKAKNTVSLQMNSLKPEDTSVYYCATLSWYQQAYDYWGQGTQVTVSS”, the “polyreactivity (PSR sort gate)” value was “low polyreactivity”.

Consider “QVQLVESGGGLVQAGGSLRLSCAASGFIFIYNAMGWYRQAPGKERELVAAISRSGGSTYYADSVKGRFTISRDNAKNTVYLHMNSLKPEDTAVYYCNARPGSRYYGYRLYYYWGQGTQVTVSS”, for which the “polyreactivity (PSR sort gate)” value is listed as “high polyreactivity”.

Consider “QVQLVESGGGLVQAGGSLRLSCAASGFIFIYNAMGWYRQAPGKERELVAAITGSDGGTFYADSVKGRFTISRDNAKNTVYLQMNSLKPEDTAVYYCNADIVGFQWGYDYWGQGTQVTVSS”, for which the “polyreactivity (PSR sort gate)” value is given as “low polyreactivity”.

For “QVQLVESGGGLVQAGGSLRLSCAASGFIFIYNAMGWYRQAPGKERELVAAITGSDGGTFYADSVKGRFTISRDNAKNTVYLQMNSLKPEDTAVYYCNADNGSRQSRDGYESWGQGTQVTVSS”, the “polyreactivity (PSR sort gate)” value was “low polyreactivity”.

Regarding “QVQLVESGGGLVQAGGSLRLSCAASGFIFKGYAKGWYRQAPGKERELVAAINTSGGSTYYAVSVKGRFTISRDNAKNTVYVQMNSLKPEDTAVYYCNVRNRSRPYLPFWPDDNWGQGTQVTVSS”, the “polyreactivity (PSR sort gate)” value is “high polyreactivity”.

In the case of “QVQLVESGGGLVQAGGSLRLSCAASGFIFKIYAMGWYRQAPGKERELVAAMSSGDNTNYADSVKGRFTISRDNAKNTVYLQMNSLKPEDTAVYYCAADWSPTAASDYWGQGTQVTVSS”, the “polyreactivity (PSR sort gate)” value is “high polyreactivity”.

Regarding “QVQLVESGGGLVQAGGSLRLSCAASGFIFKSNAMGWYRQAPGKERELVAAITRSGGRTYYADSVKGRFTISRDNAKNTVYLQMNSLKPEDTAVYYCNAKLYTGSFDYWGQGTQVTVSS”, the “polyreactivity (PSR sort gate)” value is listed as “high polyreactivity”.

Take “QVQLVESGGGLVQAGGSLRLSCAASGFIFKSYAMGWYRQAPGKERELVAAISGRGGSTYYADSVKGRFTISRDNAKNTVYLQMNSLKPEDTAVYYCNVGPSTYYQYDYWGQGTQVTVSS”: the “polyreactivity (PSR sort gate)” value is on record as “high polyreactivity”.

Take “QVQLVESGGGLVQAGGSLRLSCAASGFIFKVYAMGWYRQAPGKERELVDAISRSGGSTYYADSVKGRFTISRDHAKNTVYLQMKSLKPEDTAVYYCAADYDVTGDSDYWGQGTQVTVSS”: the “polyreactivity (PSR sort gate)” value is “low polyreactivity”.

Consider “QVQLVESGGGLVQAGGSLRLSCAASGFIFKWNAMGWYRPAPGKERELVAAISWHGGSTNYADSVKGRFTISRDNAKNTVYLQMNSLKQEDTAVYYCAKQQSPYYPSTLDYWGQGTQVTVSS”, for which the “polyreactivity (PSR sort gate)” value is listed as “high polyreactivity”.

“QVQLVESGGGLVQAGGSLRLSCAASGFIFKYYAMGCYRQAPGKERELVAVISRSGGGTYYADSVKGRYTISRDHAKNTVYLQMNSLKTEDTAVYYCAAERSSGFDYWGQGTQVTVSS”: the “polyreactivity (PSR sort gate)” value was “high polyreactivity”.

For “QVQLVESGGGLVQAGGSLRLSCAASGFIFLAYTMGWYRPAPGKERELVAAISTSGGSTYYADSVKGRFTISRDNAKNTVYLQMNILKPEDTAVYYCAARYRWGRYDYWGQGTQVTVSS”, the “polyreactivity (PSR sort gate)” value is “high polyreactivity”.

On to “QVQLVESGGGLVQAGGSLRLSCAASGFIFLDYAMGWYRQAPGKERELVAAISRSGGSTYYADSVKGRFTISRDYAKNTVYLQMNSLKPEDTAVYYCAAAFYGGGTWDSYWGQGTQVTVSS”, for which the “polyreactivity (PSR sort gate)” value is reported as “high polyreactivity”.

As for “QVQLVESGGGLVQAGGSLRLSCAASGFIFLENDMGCYRQAPGKERELVASINSGSDTNYADSVKGRFTISRDNAKNTVYLQMNSLKPEDTAVYYCNASYNGVPARYDYWGQGTQVTVSS”, the “polyreactivity (PSR sort gate)” value is on record as “low polyreactivity”.

On to “QVQLVESGGGLVQAGGSLRLSCAASGFIFLEYAMGWYRQAPGKERELVAAISARTGSTYYADSVKGRFTISRDNEKNTVYLLMNSLIPEDTAVYYSNKLTWRGEVDYWGHGTQVTVSS”, for which the “polyreactivity (PSR sort gate)” value is “high polyreactivity”.

Take “QVQLVESGGGLVQAGGSLRLSCAASGFIFLGKAMGWYRQAPAKERELVAAISSGGSTYADSVKGRFTISSDNAKNTVYLQMYSLKPEDTAVYYFAVDRAFRAQNYHEYYYWGQGTQVTVSS”: the “polyreactivity (PSR sort gate)” value was “low polyreactivity”.

With “QVQLVESGGGLVQAGGSLRLSCAASGFIFLGYAMGWYRQAPGKERELVAAISSDSDTNYADSVKGRFTISRDNAKNTVYLQMNSLKPEDTAVYYCNADIDSYREMDYWGQGTQVTVSS”, the “polyreactivity (PSR sort gate)” value is reported as “low polyreactivity”.

Consider “QVQLVESGGGLVQAGGSLRLSCAASGFIFLGYGMGWYRQAPGKEREFVAGISWSGGSTYYADSVKGRFTISRDNAKNTVYLQMNSLKPEDTAVYYCNAVVFWGGGDYYWGQGTQVTVSS”, for which the “polyreactivity (PSR sort gate)” value is reported as “low polyreactivity”.

For the sequence “QVQLVESGGGLVQAGGSLRLSCAASGFIFLHYAMGWYRQAPGKERELVAAISSSGGRTYYADSVKGRFSISRDNAKNTVYLQMNSLKPEDTAVYYCAAEAYPWYVPYDYWGQGTQVTVSS”, the “polyreactivity (PSR sort gate)” value is “high polyreactivity”.

As for “QVQLVESGGGLVQAGGSLRLSCAASGFIFLSYAMGWYRQAPGKESELVAAITSNGGSTYYADSVKGRFTISRDNAKNTVYLQMNSLKPEDTAVYYCSADSGYGPYYYWGQGTQVTVSS”, the “polyreactivity (PSR sort gate)” value is on record as “high polyreactivity”.

For “QVQLVESGGGLVQAGGSLRLSCAASGFIFLYYAMGWNTQSPGKERELVADISRGADTKYADSVKGRFTISRDNAKNTVYLQMNSLKPEDTAVYYCATDITTFWFPYPGVELGYWGQGSQVTVSS”, the “polyreactivity (PSR sort gate)” value is recorded as “low polyreactivity”.

Consider “QVQLVESGGGLVQAGGSLRLSCAASGFIFNFYAMGWYRQAPGKERELVAAISRSGGRTYYADSVKGRFTISRDNAKNTVYLQMNSLKPEDTAVYYCAAVTKSLYGYDYWGQGTQVTVSS”, for which the “polyreactivity (PSR sort gate)” value was “low polyreactivity”.

Regarding “QVQLVESGGGLVQAGGSLRLSCAASGFIFNGNVMGWYRQAPGKERELVAAITVSGGSTRYADSVKGRFTISRDNAKNTVYLQMNSLKPEDTAVYYCAARTRYLSYGWIHEYYYWGQGTQVTVSS”, the “polyreactivity (PSR sort gate)” value is reported as “high polyreactivity”.

With “QVQLVESGGGLVQAGGSLRLSCAASGFIFNHNAMGWYRQAPGKERELVAAISSGGRTYYADSVKGRFTISRDNAKNTVYLQMNSLKPEDTAVYYCAKDTKYSSQYGKYGYWGQGTQVTVSS”, the “polyreactivity (PSR sort gate)” value is “low polyreactivity”.

As to “QVQLVESGGGLVQAGGSLRLSCAASGFIFNHYAMGWYRQAPGKEREFVAAISWSGGSTYYADSVKGRFTISRDNAKNTVYLKMNSLKPEDTAVYYCAASYNGLWHGDYNYWGQGTQVTVSS”, the “polyreactivity (PSR sort gate)” value is listed as “low polyreactivity”.

For “QVQLVESGGGLVQAGGSLRLSCAASGFIFNKYAMGWYRQAPGKERQLVATIRRDGSTNYADSVKGRFTISRDNAKNTVYLQMNSLKPEDTAVYYCAVRPYYWSRDYYWGQGTQVTVSS”, the “polyreactivity (PSR sort gate)” value is listed as “high polyreactivity”.

In the case of “QVQLVESGGGLVQAGGSLRLSCAASGFIFNNYAMGWYRQAPGKERELVAAITWSGGGTYYADSVKGRFTISRDNAKNTVYLQMTSLKAEDTAVYYCAVYYPAYRDEYWGQGTQVTVSS”, the “polyreactivity (PSR sort gate)” value is “high polyreactivity”.

For “QVQLVESGGGLVQAGGSLRLSCAASGFIFNQYAMGWYRQAPGKERELVAAIRGSGGRTYYADSVKGRFTISRDNAKNTVYFQMNSLKPEDTAVYYCAKQRFGYRRSPGDYWGQGTQVTVSS”, the “polyreactivity (PSR sort gate)” value is on record as “high polyreactivity”.

Regarding “QVQLVESGGGLVQAGGSLRLSCAASGFIFNRNAMGWYRQAPGKERELVAGINSGGTTKYADSVKGRFTISRDNAKNTVYLQMISLIPEDTAVYYCAKPLNYRYYVGYPLDYWGQGTQVTVSS”, the “polyreactivity (PSR sort gate)” value was “low polyreactivity”.

With “QVQLVESGGGLVQAGGSLRLSCAASGFIFNRYAMGWYRQAPGKERELVAAITASGGSTYYADSVKGRFTISRDNAKNTVYLQMNSLKQEDTAVYYCAARAWLYSRRYGYWGQGTQVTVSS”, the “polyreactivity (PSR sort gate)” value was “high polyreactivity”.

Consider “QVQLVESGGGLVQAGGSLRLSCAASGFIFNRYTMGWYRQAPGKERELVAAITGRGGSTYYADSVKGRFSISRDNAKNTVYLQMNSLKPEDTAVYYCAAAPAYRYASYTYGYDSWGQGTQVTVSS”, for which the “polyreactivity (PSR sort gate)” value was “high polyreactivity”.

Consider “QVQLVESGGGLVQAGGSLRLSCAASGFIFPFNAMGWYRQAPGKERELVAAITSGGSTYYADSVKGRFTISRDNAKNTVYLQMNSLKPEDTAVYYCAKSWDRIGIWYRLEYWGQGTQVTVSS”, for which the “polyreactivity (PSR sort gate)” value is “low polyreactivity”.

With “QVQLVESGGGLVQAGGSLRLSCAASGFIFPGNAMGWYRQAPGKEREFVAVISGSGGSTYYADSVKGRFTISRDNAKNTVYLQMNSLKPEDTAVYYCAAVYRDKSQRADYDYWGQGTQVTVSS”, the “polyreactivity (PSR sort gate)” value was “high polyreactivity”.

Take “QVQLVESGGGLVQAGGSLRLSCAASGFIFPGNARAWYRQAPGKERELVAAISNSGSRTYYADSVKGRFTISRDNAKNTVYLQMNSLKPEDTAVYYCNADVPNRGWPYDYWGQGTQVTVSS”: the “polyreactivity (PSR sort gate)” value was “low polyreactivity”.

As for “QVQLVESGGGLVQAGGSLRLSCAASGFIFPLYAMGWYRKAPGKERELVAAITWRGDTTSYADSVKGRFTISRDNAKNTVYLQMNSLKPEDTAVYYCAAEFYDWWYYGGGEYWGQGTQVTVSS”, the “polyreactivity (PSR sort gate)” value is recorded as “high polyreactivity”.

For the sequence “QVQLVESGGGLVQAGGSLRLSCAASGFIFPLYTMGWYRQAPGKERELVAANSVTGGSTYYADSVKGRFTISRDNAKNTVYLQMNSLKPEETAVYYCNAYLFFLNRVWSFDYWGQGTQVTVSW”, the “polyreactivity (PSR sort gate)” value was “high polyreactivity”.

Consider “QVQLVESGGGLVQAGGSLRLSCAASGFIFPQNAMGWYRQAPGKERELVAAIRWSGGRTYYADSVKGRFTISRDNAKNTVYLQMNSLNPEDTAVYYCAADVRQRGIYGPGPHYYWGQGTQVTVSS”, for which the “polyreactivity (PSR sort gate)” value is recorded as “high polyreactivity”.

Take “QVQLVESGGGLVQAGGSLRLSCAASGFIFPQYAKGWYRQAPGKERELVAAISTGGGSTYYADSVKGRFTISRDNAKNTVYLQMNSLKPEDTAVYYCNARPKYDSGHYYWGQGTQVTVSS”: the “polyreactivity (PSR sort gate)” value is listed as “high polyreactivity”.

“QVQLVESGGGLVQAGGSLRLSCAASGFIFPRYAMGWYRQAPGKERELVAGITSRGTGTYYADSVKGRFTISRDNAKNTVYLQMNSLKPEDTAVYYCARLSTKPLPYDYWGLGTQVTVSS”: the “polyreactivity (PSR sort gate)” value is reported as “high polyreactivity”.

“QVQLVESGGGLVQAGGSLRLSCAASGFIFPSNVMGWYRQATGKERELVAAISTRGGRTYYADSVKGRFTISRDNAKNTVYLQMNSLKPEDTAVYYCAASISRQGGVGYWGQGTQVTVSS”: the “polyreactivity (PSR sort gate)” value is listed as “high polyreactivity”.

For the sequence “QVQLVESGGGLVQAGGSLRLSCAASGFIFPSYVMGWYRQAPWKERELVATISHSGGSTYYADSVKGRFTLSRDNAKNTVYLQMNSLKPEDTAVYYCATRRRGPYSPYSPYDYWGQGTQVTVSS”, the “polyreactivity (PSR sort gate)” value is “high polyreactivity”.

Values taken from the nanobody polyreactivity screen of Harvey et al. (2022).
